These results are taken from PMC9614494.

This assay has as its target recombinant 6xHis-GBP (Arabidopsis thaliana) (UniProt Q9LU39). In words: MST; 6xHis-GBP labelled with RED-NHS 2nd generation as target, with or without GluTR, ligand in 1:1 dilutions from 5 nM to 110 µM; Monolith NT.115, 30°C, 40% LED power, PBS.

Sequence of recombinant 6xHis-GBP (Arabidopsis thaliana) (Q9LU39 43-317): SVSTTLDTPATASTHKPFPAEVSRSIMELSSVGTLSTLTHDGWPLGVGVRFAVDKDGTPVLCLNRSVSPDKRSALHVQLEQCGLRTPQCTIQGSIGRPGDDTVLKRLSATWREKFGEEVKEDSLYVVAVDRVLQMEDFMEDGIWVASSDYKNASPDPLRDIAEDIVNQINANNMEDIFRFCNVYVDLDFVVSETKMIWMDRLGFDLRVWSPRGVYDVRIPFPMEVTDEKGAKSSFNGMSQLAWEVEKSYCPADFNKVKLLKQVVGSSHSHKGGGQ

In the case of “recombinant 6xHis-GluTR (from UniProt P42804 62-543) (enzyme)”, the Kd came out at 42 nM.
